Source: the DeepSol protein solubility set

assay: soluble on expression in E. coli; label from the status in PepcDB or PDB records

Soluble on expression in E. coli, soluble:
MAHHHHHHMTNKSYPTSLVTTPKVRRKSSEHGTFHNSSPKKKNRDIRDFFTANKCNESVEKSWNNNINKRSYHDSPMNDSPNTTLKFLSKKYKTEIN
MHHHHHHSSGLVPRGSGMKETAAAKFERQHMDSPDLGTDDDDKMKLQSPEFQSLFTEGLKSLTELFVKENHELRIAGGAVRDLLNGVKPQDIDFATTATPTQMKEMFQSAGIRMINNRGEKHGTITARLHEENFEITTLRIDVTTDGRHAEVEFTTDWQKDAERRDLTINSMFLGFDGTLFDYFNGYEDLKNKKVRFVGHAKQRIQEDYLRILRYFRFYGRIVDKPGDHDPETLEAIAENAKGLAGISGERIWVELKKILVGNHVNHLIHLIYDLDVAPYIGLPANASLEEFDKVSKNVDGFSPKPVTLLASLFKVQDDVTKLDLRLKIAKEEKNLGLFIVKNRKDLIKATDSSDPLKPYQDFIIDSREPDATTRVCELLKYQGEHCLLKEMQQWSIPPFPVSGHDIRKVGISSGKEIGALLQQLREQWKKSGYQMEKDELLSYIKKT
MGHHHHHHSHMGVPYSVLEPVLERCTPDQLYRIEEYNHVLIEETDQLWKVHCHRDFKEERPEEYESWREMYLRLQDAREQRLRVLTKNIQFAHANKP
MQFEKMITEGSNTASAEIDRVSTLEMCRIINDEDKTVPLAVERVLPDIAAAIDVIHAQVSGGGRLIYLGAGTSGRLGILDASECPPTYGVKPGLVVGLIAGGEYAIQHAVEGAEDSREGGVNDLKNINLTAQDVVVGIAASGRTPYVIAGLEYARQLGCRTVGISCNPGSAVSTTAEFAITPIVGAEVVTGSSRMKAGTAQKLVLNMLSTGLMIKSGKVFGNLMVDVVATNEKLHVRQVNIVKNATGCSAEQAEAALIACERNCKTAIVMVLKNLDAAEAKKRLDQHGGFIRQVLDKELEHHHHHH
MVGNMNREALFKTLTTGYLHFWSLSRKKLWLKGETSGNFQIIEEFKVDCDADAVLFKVTSLGPICHTGNYTCFYRSYDELVNSKS
MTVRSRFFTEAEGKAVGVENAAAKGDVLLVCEHASATIPQKYGTLGLSADVLSSHAAWDPGALAVARLLSEKFHATLVYQRFSRLVYDCNRPPESPSAMPVKSEIYDIPGNFDLDEAERFARTSALYVPFHDRVSEIIAERQAAGRKVVVVTIHSFTPVYHGRFREVEIGILHDNDSRLADAMLAGAEGASLTVRRNDPYGPEDGVTHTLRLHALPDGLLNVMIEIRNDLIANEGEQAAIAGFLHELMGKALSSIEE
MSSGKVIVYGGKGALGSAILEFFKKNGYTVLNIDLSANDQADSNILVDGNKNWTEQEQSILEQTASSLQGSQVDGVFCVAGGWAGGSASSKDFVKNADLMIKQSVWSSAIAAKLATTHLKPGGLLQLTGAAAAMGPTPSMIGYGMAKAAVHHLTSSLAAKDSGLPDNSAVLTIMPVTLDTPMNRKWMPNADHSSWTPLSFISEHLLKWTTETSSRPSSGALLKITTENGTSTITPQ
MMLSTEGREGFVVKVRGLPWSCSADEVMRFFSDCKIQNGTSGIRFIYTREGRPSGEAFVELESEEEVKLALKKDRETMGHRYVEVFKSNSVEMDWVLKHTGPNSPDTANDGFVRLRGLPFGCSKEEIVQFFSGLEIVPNGMTLPVDFQGRSTGEAFVQFASQEIAEKALKKHKERIGHRYIEIFKSSRAEVRTHYDPPRKLMAMQRPGPYDRPGAGRGYNSIGRGAGFERMRRGAYGGGYGGYDDYGGYNDGYGFGSDRFGRDLNYCFSGMSDHRYGDGGSSFQSTTGHCVHMRGLPYRATENDIYNFFSPLNPMRVHIEIGPDGRVTGEADVEFATHEDAVAAMAKDKANMQHRYVELFLNSTAGTSGGAYDHSYVELFLNSTAGASGGAYGSQMMGGMGLSNQSSYGGPASQQLSGGYGGGYGGQSSMSGYDQVLQENSSDYQSNLA

Soluble on expression in E. coli, not soluble:
MTLVVPFDGSELAEAALVRAAEFGTVFEEDVLAVSVIRNGNAKYAREHDWIGPNEDFDLEAVVTSLHEQVIDLCPSSDFRHTVVDRYAPAGAVAKAIRKLAKREDASMVFIGSENAGHLVTSISSVGGSIASDDAYDVVIVRHR
MAHHHHHHMATAADYVGKNCPYCGAIDSIETDEARGEAACVNCATVVAMGLEENVATRFEKDATYADVDRGGNVGWDPENGGAIGRATARNAGLTREEAAAAAAGLLRHPNAAASVTSAGPFGDTAKYAKTRLHPRMSAQLEVFFRLSRRHDEAILRDAIALAKHFVGFRRERGMRVEHQTEVAAASVMLAAEHLGQPIPLSEMRVLDGTLKDVESRRQEILDATNLGEEMAQMTKQYAPNLIHYYVRLLQLPLICYEMPCLALFRAIRQCESKPDPGASELAVFVEAEKVVMAVLLARTESRLQWPNKPPPPADPSAEPSRAILYSSFASRAHLQPARVEKLMRVAERSVPLIQPEFERLMQTPEFAVAAVHTMGEAVVSMTAKTEDTKSYAPVKSDPIPTSAPSAPNIARGNRKRSRSRSTTPQVPPSSASQER
MQLNKVLKGLMLALPVLAVAACSSNKSANNDQSGMGAGTGTENGSNLSSEEQARLQMQELQKNNIVYFGFDKYDIGSDFAQMLDAHAAFLRSNPSDKVVVEGHADERGTPEYNIALGERRASAVKMYLQGKGVSADQISIVSYGKEKPAVLGHDEAAFAKNRRAVLVY
MGSDKIHHHHHHMLNDANLQAADMPDTEFTLTRNGFGRLVLTLGDGTAHEGVVPVRAFPIGAPDDGIGMMSTDGHELAWIPRLDRLPAPQRAMVEEELAAREFMPEIQRIVGVSTFATPSEWTVQTDRGQTTLVLRGEEDIRRLAGTTLLISDSHGIHYLIRDLMALDRASRKILDRFL
MKLSAYHKARGGLVEWWNPKNHYDLVYKSRVFTDTYSKDTIAVTNADAVILGGTGYDLGENLPDAVEHTRPDAALYPQFSDTAYGFLSRGCPRNCGFCIVSGKEGRRSRKVADLSEFWDGQKEIKLLDANLLACPDHEALILQLAESRAWVDFSQGLDIRLITPDNVALLNRVRTRAVHFAWDNPDEDLTGYFRRFLELTAIKSDRKRRVYVLTNYGSTHEQDLYRVETLRGMGYDPYVMVYDRPAAPKITRQLQRWVNNKRIFYTVKNFADYIPNRTGGIT
MSLSSNRGVVYIGPGKVEVQDIADPKLEAPDRRKIAHGVILKVVSTNICGSDQHMVRGRTTAEPGLILGHEITGEVIEKGADVEMLEIGDIVSVPFNVACGRCRCCREGDTGVCLTVNPSRAGGAYGYVDMGGWIGGQARYVMVPYADFNLLKFPDRDRAMAKIRDLTMLSDILPTGFHGAWKAGVGVGSVVYVAGAGPVGLAAAASARILGAAVVMVGDFNKERLEHARKVGFEPVDLSKGDDLPEMIAQITGTPEVDAAIDAVGFEARGHSGGEQPAIVLNQMMQITRAAGQIGIPGLYVTEDPGAVDDAARHGSLSMRFGLGWAKAQSFHTGQTPVLKYNRQLMQAILHDRLPIADIVNATVIPLDQAVQGYESFDRGVAKKFVLDPHGMLAAEGHHHHHH
MSGKISEEAMQEQAERAEYVKNIGIEYRFGCYEEKRPESCQLLGEYMEALQQNFQAAVAIFKKNCDENSYPKSCFKYGMYMLAGKVGDDASLSKMIRPMKIACDANIPQGCRYLSLVHWNGEKDRKADSEKAERYMRRACELEDGEACWLLSTWYMGNKEKFKTNAAGEAKELDRAELGSLSRDMDKSLQFAIRACEMDIPQSCANVSRMFKLGDGVPKDLDQAKKYADRAKEIMETLRSNDTNAGFTG
MGSDKIHHHHHHMVGIVLASHGGFADGIAESAQMLFGPQDNFAHVILKPSEGPEDIKGKMNEAIASFADQEEVLFLVDLWGGTPFNQANGLLDGHDKWAIVSGLNLPMVVEALTQRMINDKATAQDIATAIIKPAKDGIKTKPESLMPAEEKAAAPAAAAGAPKEAIPEGTVLGDGHIKIVGARIDSRLLHGQVVTGWIPSLHPDRVIVVSDKIAKDDLRKSMIREAAPAGTVAHTVPLEKMKEIYEDPRFGTTHAFLLFENPEDALQTIKNGVDIKTLNVGSMSYSKGKVNANNVLSMDQTDVDTFRELEKMGIKFDVRKVPSDNPENMDSILKKAQSLLDEQSSSEKRS
MGSDKIHHHHHHMDVTSTLSLGDPLEPARKATADMLRSRDHSFSLPQPFYCDQRLFEIDMQEIFHKEWLIAGMTCEIPAKGNFLTLQIGKNPVLVIRGAEGQVHAFHNVCRHRGSRLCVSEKGKVAKLVCPYHQWTYELDGRLLFAGTEMGADFDMKEYGLKPIQVKTAGGYIFISLAENPPAIDDFLATLEHYMEPYDMENAKVAVQTTIREAANWKLVIENNRECYHCNGSHPELLKTLLEWDDVTDPRASQAFKDQVAACTSAWDAEKIPYAHASFGLRNRIVRMPLLDGTVSMTMDGKQGSKKLMGRIKNPDLGSMRILHLPHSWNHCMGDHLIVFTVWPISAQETLVTTKWLVHKDAVEGVDYDVARLREVWDATNDQDRRLAEENQRGINSDAYQPGPYSKTYEFGVINFLDWYSERMLNNLGEESAHVRKVAGS
MTITALTVTLPLLWRRLTTAGVKYADQGHFVGSAGVPAADAGGRDAASEQIARWTQTCTVVLVCGHGPAKWAFRSWCTSRSCDTLPVALRYRLQSNPLVGKLTTKYFLPLGTRQVGDHVVFFNFGYEEDPPMALPLSESDEPNRYCIQLYHQTASQVDLTGKEVLEVSCGAGGGASYIARNLGPASYTGLDLNPASIDLCRAKHRLPGLQFVQGDAQNLPFPDESFDAVVNVEASHQYPDFRGFLAEVARVLRPGGHFLYTDSRRNPVVAEWEAALADAPLRTISQRDIGAQAKRGLDANTARSQEAIGRRAPVLLAGLTRCAVRVLDWDLRRGGGFSYRIYLFAKD
DTDMGLTRRLPPLSPNKEKQPDVEINDRNIMRILVNKNDEIILLKKGATGSQDQIIPVKLSDLRRITKEFIANPTNRADLPEKEKRE
MGSDKIHHHHHHMFLKNAWYVAAWDHEVRTDLQQIMVLGEKICMFRTQSGDLVALEDACPHRKLPLSKGRIKGDTVECGYHGLTFNCAGTCVWAPGASGIPSNARVHAYPLAEKYGLIWIWMGNPALADPSDIFEIENYGNPDWGINRGAAMELDCNYLLMCDNLLDPTHVAWVHQSSFAAEATKDTPLHVTKTDTGIIVHRWMMDHDPAPFYKKVVEFDGNCDRLQHYEVRYPSHALVRAVFTPAGTGGPDGPLHANTFIMDSYNFMTPVSEGKTRYYWFQLRNIRPDDEALSQMMSDDVHHAFEEDRAVLNEVQIGMSSKTSPHIDLPIDGGQLRFRRQLQAMINEEAQVDAQMAE
MAENKTINKEQNRTENNEIVIMNFSGIYKEQQFYRNHAEMQEDISWLEVQDLPGSNCYCDEEAKNRILDDIKNYTGNGIHFIDSGNYHYVSRLWLSKMEHPFRLLVFDNHTDMQLPAFGGLLSCGGWIAASLEEVPMLQEVILVGPDEEAYMQVEPEFQQKVQFLSREKLLAMTGEEKNTFFRNLRADLPMYISVDKDVLCTADASTTWSQGDMSLEKLQKFLEIVLQQQQILGMDICGECDPDACERNLLNDRANQKLLELWKKYFPQIRERRQDI
MPQQNYLDELTPAFTSLLAIKEASRCLLCHDAPCSQACPAQTDPGKFIRSIYFRNFKGAAETIRENNALGAVCARVCPTEKLCQSGCTRAGVDAPIDIGRLQRFVTDFEQQTGMEIYQPGTKTLGKVAIIGAGPAGLQASVTLTNQGYDVTIYEKEAHPGGWLRNGIPQFRLPQSVLDAEIARIEKMGVTIKCNNEVGNTLTLEQLKAENRAVLVTVGLSSGSGLPLFEHSDVEIAVDFLQRARQAQGDISIPQSALIIGGGDVAMDVASTLKVLGCQAVTCVAREELDEFPASEKEFTSARELGVSIIDGFTPVAVEGNKVTFKHVRLSGELTMAADKIILAVGQHARLDAFAELEPQRNTIKTQNYQTRDPQVFAAGDIVEGDKTVVYAVKTGKEAAEAIHHYLEGACSC
